From a protein production outcome set (Wang et al. 2014)

Test: label from the status in PepcDB records
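Note: failed if final PepcDB status was selected cloned or expressed and not failed if soluble or beyond.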

| Sequence | protein production |
| --- | --- |
| MLIREAKLAGTPEQFAQLDAAIRTAQCVHNRCLRYWRDNAGVSKNDLQKFCAVLAKDAEQPWMGLLNSQARQAAAERTWQSIQSFYRRCKEGAKHKGYPKFKKHSRSVEYKTSGWKLSDDGMSITFTDGFKAGQLELWLDGSARQLILSSKINRVRVVRRADGYYAQFCLDVERQEAGVYSGNVIGLDLGLKYFTKDSNGAEVACPKFFRKGEKRLRRAQRRLSKRFKKGAKPQSKNYHKQRQRIGKVHLKIQRQRKSWAIEQARRVMVSNDIVVYEDLRVPNLVRSRHLAKSIHDAGWTQFTHWLDYYGKLWRKVVVAVNPAYTSQDCSGCGYRVQKSLSTRTHDCPHCGLTICRDQNAALNILKRGLEVVGAEWNNGTAGHAETGSQEQTTGEISTSAEVGQPTSVSAVAEPVRTSREAV | failed |
| MLIRKITRKNPSPDVLEEAISVMEGGGIVIYPTDTIYGLGVNALDEDAVRRLFRVKGRSPHKPVSICVSCVDEIPRFSRPSGDAMELMERILPGPYTVVLERNELIPDVITGGSSRVGIRVPDDEICRRIAARFPVTATSANISGKPPSPRLEEIVRDLDAVDLVLDAGDCLDMEPSTVIDLTVNPPRVLRRGKGPLDPVLLRGAGDV | not failed |
| MLIRPFLQYILGAVLLAYVLYPLQIRLETYVSPMLAALSLVTLAVTGFVAPVVVVLASIMESADRILREFGTDPVQLDILESRIKGLTGVEVDIAGELVSSGRDIGTIIVERSTQAFSTITFHLIGIALALFLIYYLLKDGDDLVDWLHRTVPLPVDVQRDFYAEIDDVMLGVLFGHVFVAIVQGIVAGVGLAATGVPNAMFWTAVMVVLAMVPLIGTIPVWGGAVIYLYATDEPLLAVGLFLYSVIIVGLTDDYLRPFAVDRYAKLNPAVILLGILGGAYAFGVMGLLFGPVVLGALKAALRVGLDTWSQIDDGNIG | failed |
| MLISAIIGGVEYINLYRFPEIPLVGFTLIGVVLSIFLGFKNTACYDRWWEARKLWGVLIATSRHFDRDCRILTQARRERVIQHVIVFANVLRDRLRRQTANPTELIQTSGMSQQALTQLYQQNNAPQYTLSLIQWELLQALKEGEISDIIYAQMNKNVADLSVVQTGCDRIANTPIPFAYSVLLNRTVYFFCFMLPFSLGSLLGLATPLLVGILAYTFLGLDALSTEIEEPFGTQSNDLPLDAMVRSIEIELLGTLGKPTPPPIQAQDNNLL | failed |
| MLISIESKEHYRILCIDGGSTDQTIPMIERLQRELKHISLIQLQNASIATCINKGLMDIKMTDPHDSDAFMVINPTSIVLPGKLDRLTAAFKNNDNIDMVIGQRAYNYHGEWKLKSADEFIKDNRIVTLTEQPDLLSMMSFDGKLFSAKFAELQCDETLANTYNHAILVKAMQKATDIHLVSQMIVGDNDIDTHATSNDEDFNRYIIEIMKIRQRVMEMLLLPEQRLLYSDMVDRILFNNSLKYYMNEHPAVTHTTIQLVKDYIMSMQHSDYVSQNMFDIINTVEFIGENWDREIYELWRQTLIQVGINRPTYKKFLIQLKGRKFAHRTKSMLKRLEHHHHHH | failed |
| MLISKKTLGVLIPDIFSFSNDQIAQKLEQMGIEVESIKQFNSPDYLQLAKVVSIQPHPHDNKLFICELQIDKNKFINVVSNANNINNPDNINKFVIVAKKGTELLNGLIVKTQNIKGIISEGILCSYIDINPFSRQIIEKTEVADAIIIDHVSNDHDWNQYLSFLSLDDVIFDVKTPTNRADLHSLIFLAKELGVLLKTKTFLKQKSSVVNHDFFKFPLNLKNKLKANYFGGLFLRQINQHSSPWTVKGLLINQMIKPVNYYVDKANLVTVFTAQPIHCHDADRIVGNIELKQATHNETFVGLDDKQYEIEPGDIVVCDEKGIIALVGIIGSKRTMVQPTTTNIFFEVVNCNSETIKQTAKRFLINNFASKFMVKPISLLATDNCLNYLQNSLLTTDNIGKISHFSSSLKVEPFSKKLTVNFHKIRQLIGIEKKELTDQTIKKSLSQLGFKVDNQLLKIPSYRQDINTWQDISEEIVKLIDINKLKPIGITSSFNFEKSSYFNTFNALTKLRKKLQTLGFHNVITYQLTDQKSAKTFNLFNLENFITIKNPVSQNHSVMRVSLIDSLLKVLKTNNNYKNELVNIFEFSFIKTQNNSELHLAVLWVEKLFTSSFNPMQGISNDVFTMKGLAKLIVANLGFSCDFEPLDDSDYFVNNQSLKIVVFNEQIGFIGLIKESLLNNYDLNNKPIYCLEINLDRMLSSLNRIEKNYLGYSKLQPVCKDLTFSFTNPASHFDQFANMIKRITGIESWKLISVFETMQNNQLITKYTVRYFLKNDANKPLTNQTIELITNNLKLQCEKLKIKLDI | failed |
| MLISLIVPIYNVEGFLPRCLDSIIKQEYQNLEIVLVNDGSTDQSGLICDQYAEKDERFIVFHKENGGVSSARNVGLNKANGNYIGFVDPDDWIEPNMINKLYELIIQHKADIAMCGYVKEDINGLLISRPVELSTKILNKEDTLNSILNPNDFRGFLCNKLFSVDLFRKKNLYLDEDIHFCEDLLFCCQAILESKQIVYDSTPYYHYIIHNNNASKSNFSFKKLTALNSLDNIINLLNDQKGIELEQYKNYYMHLNISLLMNGIHEDKIRRQDKERLKKNLYKFKINDLTSKFVKFSCVLARLNLNLYYFIWKNAKPSNLEHHHHHH | failed |
| MLIVSGCSSSQNNNGSGKSESKDSRVIHDEEGKTTVSGTPKRVVVLELSFLDAVHNLGITPVGIADDNKKDMIKKLVGSSIDYTSVGTRSEPNLEVISSLKPDLIIADAERHKNIYKQLKKIAPTIELKSREATYDETIDSFTTIAKALNKEDEGKEKLAEHKKVINDLKAELPKDENRNIVLGVARADSFQLHTSSSYDGEIFKMLGFTHAVKSDNAYQEVSLEQLSKIDPDILFISANEGKTIVDEWKTNPLWKNLKAVKNGQVYDADRDTWTRFRGIKSSETSAKDVLKKVYNK | failed |
| MLKEKAGVIAGTIWNALNETEGMTAKQLKKATKLVDKDLFLGLGWLLREDKVSVEEVEGELFIKLI | failed |
| MLKGFNSGDISYEILEKKKENIEQQALERFLEEKSEKENKHIPKEDMLFNSKDSIAMERIVGKNDLFPISYLQIGLNISKSVCRISIRDSRGVVVGYGTGFLVAPNIILTNNHVINSYEVASNSIAEFNYQDDENFMPCPTYNFRLNPQTFFITNVKLDFTLVALNENVTNQKHLEDFGYLKMTQKEGTILPEEYVSIIQHPKGGPKSVTLRENKVSGLKENFIHYLTDTEPGSSGSPVFNDQWTLVALHHSGVPNPEIKDEWIANEGILISAIVNYLAKKYSSLKENEQAIIKEIVPDIELPKENNITSSVDDEPLGYNPLFLGKDYEIPLPKLSKEMEKDTAKTEDGNYVLDYIHFSIVMKKSRGLAYFTAVNIDGTDAVKIRRTADNWKFDPRISQNYQYGDEVYVNNDLDRGHLVRRTDPNWGKNALKANEDTFYFTNSTPQHKNLNQKTWVELEDYIFRNAVLNQFKVSVFTGPVFREDDMIYRQKYQIPAEFWKVVVMLKEDGNISATAYLQTQKNMIENLEFAYGEYKTYQVPVRNIEKLTGLDFGNLSKFDPMANIEATGIVITGPESIKF | failed |
| MLKGFTRSSISPQLCSLYFKGLVGDDSLAGFGVAICGHRDDILFQLNAPIHGSDITVLEAELMALKRGLIEAAGFKSSFTIFVEGSSIRYVSELARATIVSELSISVDPPSSSLNGIEKLKLEDVIVWNVVNPYASTAKFGKSENVASMWKVPTHDRTFRRMHQSNLQFTFDFLGCWIGVAIRFATHAEQNGSKEVALIEQ | failed |
| MLKILATQFNGKLQTLTKQEDELFDVVRLLAQALVGQGKVYLDAYGEFEGLYPMLSDGPDQMKRVTKIKDHKTLHAVDRVLIFTPDTERSDLLASLARYDAWHTPYSIITLGDVTETLERSIAPLALKFDKGLLPAEDGSRHGLPSLALGAFLLTHILTQLQEMTEEWE | not failed |
| MLKKLFAPPQKRERLSAEEIKHKYPRYRVQVLISIFVGYMGYYFVRNTTSILSGILNMSATEIGIITCASYIAYGLSKFISGLISDESNSKIFLPVGLFLTGLVNVLIGVIPSVITSIWLFTIMYLINGWLQGMGYPPGARTLVYWYDNKERIKYATIWNLSHNFGGAIAPILTGVGLALAGNDSLNQARAAYWFPGVVACLLAVLVYFLQEDTPESIGLPPIEEYHKEQYTNVVDSSDILEEPEVLGMGEIIKKYILPNTKLMWASLYSIFVYILRYGIVSWTPKFLATSVQDGGKGITATAGMGGFSLFEIGGIIGMLTAGYLSAKVFKNSKPLTNVAFLVVAILLLAAYWFIPAGPQYMALDFIILLGLGASIYGPVMMVGLYAMELVPKAAAGAASGLTGTFSYVGGATIATLAIGIIIDHFGWGVAFIIFGISGFAAIVCTLLSRDKSLEYW | failed |
| MLKLSNFGPGALVAAAFIGPGTVVTASLAGANFGYALLWALLFSVVACVILQEMSARIGLVTQAGLGENIRNNLTSGWLRWLALLLIFSAIAIGNSVYQGGNLSGASLGASELLGPVPVLDVWLSNAWALIIGIIALLILWSGNARVIERALIVMVLLMSVAFIGTFLLTDPDWGAVFNGTFGFSMPTGATLTVVALIGTTVVPYNIFLHASSVSKKWKTAEELPAARRDLFLSIPFGGLISMAIVATAASAFFGQQVEIESAGDLAESLRPLFGDGATYLMAIGLFAAGISSATTAPLASAYALCGIMGWSVNLRSRAFRIIWFTILVIGIIISSVGIKPVTVIWFAQVANGILLPIIVGFLWWLCQSPLLGKYRNSLLQNILAAIIFLISVVLSGRSLGSAFGFW | failed |
| MLKPLVLSDSSPVRPRDLTLLDQEEAGLVSTFINRPPIDIFKILPSKDDPDWPSFQQILSKFPDTEHLCPDGGLVNNSFILDIVLPQKWIDHRVCNPRFFQSIVSTTCYFMGFVFYADLNLGFMHFSPFHIAII | failed |
| MLKQTSDSPVGTLFIIIEDAHITKISYDEPTNWEILAGEKGEIAIYQQLLEQLAGYFEGEREVFDLPIFLQGTPFQQRVWQALSEIPYGVVVSYKDIAIAAGSPKAVQAVGQANRANPIPILIPCHRCVKSDGALGGYNGADIDKKQYLLALEKGLRLS | failed |
| MLKRTLLACLALSCSFPSYSADYITENLSTYMRKGAGDQYKIAGTIQAGEKITVLDRKDRFVLIRDSRNREGWVLNNEISQTASPKELIPELQQQIQDLSSKLNKIDNDWQQRTAEMQRRSQQAEQQSSELLDENTQLKRKLEVLKNKNRDLETMQDAEKREIVIQWFIYGGSVLTVGLLLGLLIPFILPRRRRNNGWSLEHHHHHH | failed |
| MLKSQEIRQKAPELDSLRLGSGWKSEELNKAQIIIESSFGHSHPGSAHLDTLVDEAFKSIDDNGGRGAKYFVTDICDGETQGHDGMNYSLASRDIMTNLMEIHVQATPFDAGIFIASCDKAVPAHLMAIARLDMPSILVPGGIMNAGPNMLTLEQIGTYNAQYERGEITKEQYEHYKQNACPSCGACSFMGTASTMQVMSEALGIALPGTALIPVTSKELKLAAKNAGKQILKLIELNIKPSEIMTKKAFENAIMVHAAIAGSSNCLLHIPAIAHELGMDIEPELFDEIHKKIPYILNIRPSGFYPGSYFWNAGGVPAIMEEIKEFLHLDVMTVTGKTLGENLEDLKNSGYYEEHDKLITSLGIKKEDVIRTKENPIQSQGAIAILKGNLAPGGAVVKHSAISKKLMQVVLKARVFNCEEDAIKSVLTKNIKPGDAVFVRYEGPKGSGMPEMFYTTEAIASDHELVDSTALITDGRFSGATRGPAIGHVSPEASEGGPIAFVQEGDLIKIDIPARKLDIIGTNGIEKSEKEIENILKERSQNWVKPAPRYTKGILGLYTRCASSPMKGGYME | failed |
| MLKTILSISGKPGLFKLVSHGKNMLIVESLADKKRVPAYAKDKVISLGDIAIYTNEAEVPLHEVLTNVKNKENGQQASVSTSAKPDELRAYFAEILPNFDRERVYPSDIKKLISWYNILIGAGLTEFTPEGSATEEASVKETKKEEA | failed |
